# Test results published in patent publication US9383366B2, “Blue fluorescent protein and methods of use thereof” (WiSys Technology Foundation, Inc., priority 2013, dated 2016).
# B1: Sandercyanin protein: native blue fluorescent bili-binding lipocalin protein from walleye mucus, SEQ ID NO: 1 (protein)
# chain: QFIKPGRCPKPAVQEDFDAARYLGVWYDIQRLPNKFQKGECATATYSLSPGVGFSVFNRERLANGTIKSVIGSAIAEDPCEPAKLQFFHENAAPVPYWVLSTDYDNYALVYSCINLGASHAAYASIVSRQPTLPEETIKKLQGTMSSFGVGVDTLLTTNQDAAYCSAMNQ
# modifications: Sandercyanin
# Key:
# hydra = experiment: Injection of Sandercyanin protein into hydra, fluorescence localization; type: in vivo; conditions: injected into hydra
# Source text: We are currently imploring the localization of Sandercyanin in model organisms.
# [1] = on excitation at 380 nm and 630 nm; cited from earlier work
# [2] = Spectral properties (absorption and fluorescence emission) of Sandercyanin protein; type: physicochemical
# [3] = band maximum used for Stokes shift
molecule,measurement,setting,value
B1,fluorescence after injection,hydra,showed fluorescence on the surface of tentacles
same,emission maxima,[1],678 nm
same,absorption,[2]; [3],375 nm
same,emission,[2]; [3],675 nm
same,Stokes shift,[2]; difference between absorption and emission band maxima,~300 nm
